How the values were obtained:
[1] = target: human NCAM Ig1-5/FN1-2 Fc fusion protein (full-length NCAM-EC) (human) (UniProt P13591); experiment: pull-down; 1 ug of neurocan (human or mouse) incubated with 1 ug of Fc protein in TBS for 1 hr at 37 C; Fc proteins pulled down with Protein A/G Sepharose beads; immunoblot, densitometry
[2] = target: human NCAM Ig1 Fc fusion protein (human); experiment: as above
[3] = target: human NCAM Ig1-2 Fc fusion protein (human); experiment: as above
[4] = target: human NCAM Ig2 Fc fusion protein (human); experiment: as above
[5] = target: human NCAM Ig1-3 Fc fusion protein (human); experiment: as above
[6] = target: NCAM R156E mutant expressed in HEK293T cells (UniProt P13591); experiment: co-IP; lysates (1 mg, RIPA buffer) of HEK293T cells transfected with NCAM140, NCAM mutants or EphA3, incubated with recombinant neurocan; precipitated with antibodies against NCAM (H-300) or EphA3 (C-19) and Protein A/G agarose; immunoblot for neurocan, densitometry
[7] = target: NCAM K162D mutant expressed in HEK293T cells (UniProt P13591); experiment: as above

| Substance | neurocan bound to NCAM-EC-Fc, percent of the human neurocan level [1] | neurocan bound, percent of the amount bound to NCAM-EC-Fc [2] | neurocan bound, percent of the amount bound to NCAM-EC-Fc [3] | neurocan bound, percent of the amount bound to NCAM-EC-Fc [4] | neurocan bound, percent of the amount bound to NCAM-EC-Fc [5] | neurocan co-immunoprecipitated, percent of WT NCAM [6] | neurocan co-immunoprecipitated, percent of WT NCAM [7] |
| --- | --- | --- | --- | --- | --- | --- | --- |
| recombinant mouse neurocan Glu23-637 (a truncation lacking the sushi domain) (from UniProt P55066 23-637) (domain or fragment) | 93% |  |  |  |  |  |  |
| recombinant human neurocan (full-length protein) (from UniProt O14594 23-1321) (natural protein) |  | 23% | 33% | 129% | 50% | 32 % of WT | 41 % of WT |

From paper PMC5906663
